For the test, the target named is HLA-A*24 (human). The test is described as follows: UV-ligand exchange, anti-b2m ELISA.
As to IYATEAHVF [SEQ ID NO: 201 peptide …], the peptide exchange yield fell in the range of 50 to 75%.

In the case of TYGDAGLTYTF [SEQ ID NO: 283 peptide …], the peptide exchange yield lay in the range of 50 to 75%.

DYLKGLASF [SEQ ID NO: 163 peptide …]: the peptide exchange yield was > 75%.

Consider YYVESGKLF [SEQ ID NO: 166 peptide …], for which the peptide exchange yield is > 75%.

Consider VYTLDIPVL [SEQ ID NO: 160 peptide …], for which the peptide exchange yield was > 75%.

For TYKDEGNDYF [SEQ ID NO: 209 peptide …], the peptide exchange yield fell in the range of 50 to 75%.

Turning to VYWDSAGAAHF [SEQ ID NO: 202 peptide …], the peptide exchange yield is > 75%.

Turning to VYVSDIQEL [SEQ ID NO: 288 peptide …], the peptide exchange yield fell in the range of 50 to 75%.

RYAEEVGIF [SEQ ID NO: 199 peptide …] had a peptide exchange yield of 50 to 75%.

As to YYKSTSSAF [SEQ ID NO: 218 peptide …], the peptide exchange yield was 50 to 75%.

Molecule KFSSFSLFF [SEQ ID NO: 164 peptide …] yielded a peptide exchange yield of 50 to 75%.

For the molecule IYLVSIPEL [SEQ ID NO: 161 peptide …], the peptide exchange yield is > 75%.

YFIDSTNLKTHF [SEQ ID NO: 269 peptide …] returned a peptide exchange yield of 50 to 75%.

Molecule EYNQWFTKL [SEQ ID NO: 176 peptide …] showed a peptide exchange yield of 50 to 75%.

Consider TYELRYFQI [SEQ ID NO: 204 peptide …], for which the peptide exchange yield was > 75%.

Turning to PYRLIFEKF [SEQ ID NO: 281 peptide …], the peptide exchange yield was 20 to 49%.

As to KYPVEWAKF [SEQ ID NO: 289 peptide …], the peptide exchange yield is > 75%.

TFSVSSHLF [SEQ ID NO: 222 peptide …] gave a peptide exchange yield of 50 to 75%.

EYSLFPGQVVI [SEQ ID NO: 197 peptide …]: the peptide exchange yield lay within 50 to 75%.

RYLNKAFHI [SEQ ID NO: 284 peptide …] yielded a peptide exchange yield of 50 to 75%.

Turning to VFTRVSSFL [SEQ ID NO: 162 peptide …], the peptide exchange yield is 50 to 75%.

Regarding YYGPSLFLL [SEQ ID NO: 200 peptide …], the peptide exchange yield was 50 to 75%.

As for KYQDILETI [SEQ ID NO: 168 peptide …], the peptide exchange yield was > 75%.

For the molecule TYSVSFPMF [SEQ ID NO: 195 peptide …], the peptide exchange yield was > 75%.

As to LYIDRPLPYL [SEQ ID NO: 196 peptide …], the peptide exchange yield lay within 50 to 75%.

On to HYSQELSLLYL [SEQ ID NO: 158 peptide …], for which the peptide exchange yield is > 75%.

DYTTWTALL [SEQ ID NO: 165 peptide …]: the peptide exchange yield was > 75%.

Molecule AYVVFVSTL [SEQ ID NO: 207 peptide …] yielded a peptide exchange yield of 20 to 49%.

Take IYSWILDHF [SEQ ID NO: 173 peptide …]: the peptide exchange yield is > 75%.

Consider LYITEPKTI [SEQ ID NO: 287 peptide …], for which the peptide exchange yield was 50 to 75%.

In the case of YYEVHKELF [SEQ ID NO: 175 peptide …], the peptide exchange yield was > 75%.

On to LYNKGFIYL [SEQ ID NO: 159 peptide …], for which the peptide exchange yield was > 75%.

Take VYVGGGQIIHL [SEQ ID NO: 174 peptide …]: the peptide exchange yield lay within 50 to 75%.

Regarding VYEDQVGKF [SEQ ID NO: 170 peptide …], the peptide exchange yield was in the range of 20 to 49%.

For the molecule NYYEVHKELF [SEQ ID NO: 270 peptide …], the peptide exchange yield fell in the range of 50 to 75%.

Take VYQGHTALL [SEQ ID NO: 277 peptide …]: the peptide exchange yield was > 75%.

As to NYINRILKL [SEQ ID NO: 167 peptide …], the peptide exchange yield was > 75%.

With LFIPSSKLLFL [SEQ ID NO: 171 peptide …], the peptide exchange yield is 50 to 75%.

In turn, HYPPVQVLF [SEQ ID NO: 285 peptide …] registered a peptide exchange yield of 50 to 75%.

In turn, QYLGQIQHI [SEQ ID NO: 268 peptide …] yielded a peptide exchange yield of 50 to 75%.

For the molecule RYPDNLKHL [SEQ ID NO: 286 peptide …], the peptide exchange yield was 20 to 49%.

As to AYTLIAPNI [SEQ ID NO: 169 peptide …], the peptide exchange yield was in the range of 50 to 75%.

These data come from patent publication US20170189504A1.
